T1: MPP2, Q14168
T1 sequence (Q14168 180-250, limits assumed, looked up): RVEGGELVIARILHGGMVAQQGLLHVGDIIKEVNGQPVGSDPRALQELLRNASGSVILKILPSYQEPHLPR

T2: GRIP1_5, Q9Y3R0
T2 sequence (Q9Y3R0 568-668, limits assumed, looked up): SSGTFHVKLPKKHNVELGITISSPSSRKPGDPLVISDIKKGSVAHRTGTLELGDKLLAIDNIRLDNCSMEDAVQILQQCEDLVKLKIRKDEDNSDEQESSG

T3: APBA1_2, Q02410
T3 sequence (Q02410 742-832, limits assumed, looked up): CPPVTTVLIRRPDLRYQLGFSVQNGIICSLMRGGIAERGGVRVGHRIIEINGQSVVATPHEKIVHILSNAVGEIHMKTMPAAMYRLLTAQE

T4: APBA2_1, Q99767
T4 sequence (Q99767 563-664, limits assumed, looked up): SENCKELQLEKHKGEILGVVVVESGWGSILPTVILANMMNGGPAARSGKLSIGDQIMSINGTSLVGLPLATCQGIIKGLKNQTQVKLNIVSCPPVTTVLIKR

T5: NHERF3_3, Q5T2W1
T5 sequence (Q5T2W1 238-333, limits assumed, looked up): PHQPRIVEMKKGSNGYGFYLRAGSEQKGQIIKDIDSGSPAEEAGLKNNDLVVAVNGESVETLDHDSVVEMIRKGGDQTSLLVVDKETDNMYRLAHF

T6: SYNJ2BP, P57105
T6 sequence (P57105 8-110, limits assumed, looked up): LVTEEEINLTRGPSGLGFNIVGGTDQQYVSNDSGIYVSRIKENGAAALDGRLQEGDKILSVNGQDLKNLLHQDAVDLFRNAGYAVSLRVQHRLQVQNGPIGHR

T7: LNX2_2, Q8N448
T7 sequence (Q8N448 334-432, limits assumed, looked up): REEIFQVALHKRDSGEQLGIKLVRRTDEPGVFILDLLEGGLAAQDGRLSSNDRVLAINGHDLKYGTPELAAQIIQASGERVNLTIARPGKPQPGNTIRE

T8: APBA1_1, Q02410
T8 sequence (Q02410 651-752, limits assumed, looked up): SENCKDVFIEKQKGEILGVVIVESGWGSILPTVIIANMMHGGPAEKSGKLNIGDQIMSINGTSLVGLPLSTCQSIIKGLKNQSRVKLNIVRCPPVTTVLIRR

T9: NHERF3_1, Q5T2W1
T9 sequence (Q5T2W1 4-100, limits assumed, looked up): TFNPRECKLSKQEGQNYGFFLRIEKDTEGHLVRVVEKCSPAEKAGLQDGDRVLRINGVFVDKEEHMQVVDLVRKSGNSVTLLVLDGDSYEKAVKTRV

T10: GRIP1_3, Q9Y3R0
T10 sequence (Q9Y3R0 247-346, limits assumed, looked up): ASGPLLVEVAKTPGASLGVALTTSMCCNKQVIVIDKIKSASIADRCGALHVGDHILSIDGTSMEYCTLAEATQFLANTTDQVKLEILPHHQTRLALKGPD

T11: DLG3_2, Q92796
T11 sequence (Q92796 221-321, limits assumed, looked up): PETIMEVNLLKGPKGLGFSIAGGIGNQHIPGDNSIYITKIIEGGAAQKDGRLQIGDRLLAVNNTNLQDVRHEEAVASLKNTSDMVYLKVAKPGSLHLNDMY

T12: RHPN1, Q8TCX5
T12 sequence (Q8TCX5 508-602, limits assumed, looked up): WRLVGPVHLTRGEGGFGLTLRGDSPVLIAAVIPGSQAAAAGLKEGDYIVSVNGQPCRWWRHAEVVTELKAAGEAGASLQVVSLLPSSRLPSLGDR

B1: SLC15A2, Q16348 (peptide)
chain: IKLETKKTKL
B2: CLDN20, P56880 (peptide)
chain: NSTHNLKDYV

These binders were tested against T1, MPP2, Q14168 (assay: holdup assay). Conditions: plain residues with an end cap or a label only (N-terminal biotin on a linker: ado-ado).
Design: key: below the threshold = too weak to quantify, mostly under pKd 3.1 to 4
B1 was tested, and the pKd was “below the threshold”. B2 was tested, and the pKd was “below the threshold”.

The binders below were run against GRIP2_5, Q9C0E4 (assay: holdup assay). Conditions: plain residues with an end cap or a label only (N-terminal biotin on a linker: ado-ado).
Chain of GRIP2_5, Q9C0E4 (Q9C0E4 544-642): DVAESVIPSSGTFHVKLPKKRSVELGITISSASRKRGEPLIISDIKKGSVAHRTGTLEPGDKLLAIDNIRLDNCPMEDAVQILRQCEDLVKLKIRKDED
Design: key: below the threshold = too weak to quantify, mostly under pKd 3.1 to 4
Binder B1 has a pKd of 3.58. With B2 the pKd was “below the threshold”.

The binders below were run against T2, GRIP1_5, Q9Y3R0 (assay: holdup assay). Conditions: plain residues with an end cap or a label only (N-terminal biotin on a linker: ado-ado).
Design: key: below the threshold = too weak to quantify, mostly under pKd 3.1 to 4
With B1 the pKd was “below the threshold”. With B2 the pKd was “below the threshold”.

Each binder was assayed against PDLIM1, O00151 (assay: holdup assay). Conditions: plain residues with an end cap or a label only (N-terminal biotin on a linker: ado-ado).
Chain of PDLIM1, O00151 (O00151 1-87): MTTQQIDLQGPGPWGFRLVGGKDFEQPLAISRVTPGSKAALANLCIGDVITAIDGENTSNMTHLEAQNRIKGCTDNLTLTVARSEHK
Design: key: below the threshold = too weak to quantify, mostly under pKd 3.1 to 4
With B1 the pKd was “below the threshold”. In the case of B2, the pKd is reported as “below the threshold”.

These binders were tested against HTRA1, Q92743 (assay: holdup assay). Conditions: plain residues with an end cap or a label only (N-terminal biotin on a linker: ado-ado).
Chain of HTRA1, Q92743 (Q92743 360-477): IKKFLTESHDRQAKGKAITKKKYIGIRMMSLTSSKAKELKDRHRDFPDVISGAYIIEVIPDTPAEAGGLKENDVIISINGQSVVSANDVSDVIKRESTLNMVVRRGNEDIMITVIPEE
Design: key: below the threshold = too weak to quantify, mostly under pKd 3.1 to 4
B1 was tested, and the pKd was “below the threshold”. Work on B2 yielded a pKd of 3.64.

Each binder was assayed against T3, APBA1_2, Q02410 (assay: holdup assay). Conditions: plain residues with an end cap or a label only (N-terminal biotin on a linker: ado-ado).
Design: key: below the threshold = too weak to quantify, mostly under pKd 3.1 to 4
With B1 the pKd was 3.67. With B2 the pKd was 3.69.

The binders below were run against GRID2IP_2, A4D2P6 (assay: holdup assay). Conditions: plain residues with an end cap or a label only (N-terminal biotin on a linker: ado-ado).
Chain of GRID2IP_2, A4D2P6 (A4D2P6 272-370): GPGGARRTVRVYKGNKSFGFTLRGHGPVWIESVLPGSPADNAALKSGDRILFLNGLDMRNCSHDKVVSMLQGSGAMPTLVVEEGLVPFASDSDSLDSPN
Design: key: below the threshold = too weak to quantify, mostly under pKd 3.1 to 4
Binder B1 has a pKd of 4.71. In the case of B2, the pKd is reported as “below the threshold”.

What follows are binders tested against T4, APBA2_1, Q99767 (assay: holdup assay). Conditions: plain residues with an end cap or a label only (N-terminal biotin on a linker: ado-ado).
Design: key: below the threshold = too weak to quantify, mostly under pKd 3.1 to 4
In the case of B1, the pKd is reported as 3.5. B2 was tested, and the pKd was “below the threshold”.

The binders below were run against T5, NHERF3_3, Q5T2W1 (assay: holdup assay). Conditions: plain residues with an end cap or a label only (N-terminal biotin on a linker: ado-ado).
Design: key: below the threshold = too weak to quantify, mostly under pKd 3.1 to 4
For B1, the pKd was 4.67. For B2, the pKd was “below the threshold”.

What follows are binders tested against PICK1, Q9NRD5 (assay: holdup assay). Conditions: plain residues with an end cap or a label only (N-terminal biotin on a linker: ado-ado).
Chain of PICK1, Q9NRD5 (Q9NRD5 17-115): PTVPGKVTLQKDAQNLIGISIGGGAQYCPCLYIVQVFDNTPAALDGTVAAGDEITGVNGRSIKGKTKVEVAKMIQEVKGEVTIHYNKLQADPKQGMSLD
Design: key: below the threshold = too weak to quantify, mostly under pKd 3.1 to 4
For B1, the pKd was “below the threshold”. For B2, the pKd was “below the threshold”.

What follows are binders tested against DLG2_3, Q15700 (assay: holdup assay). Conditions: plain residues with an end cap or a label only (N-terminal biotin on a linker: ado-ado).
Design: key: below the threshold = too weak to quantify, mostly under pKd 3.1 to 4
For B1, the pKd was “below the threshold”. In the case of B2, the pKd is reported as “below the threshold”.

Each binder was assayed against FRMPD3, Q5JV73 (assay: holdup assay). Conditions: plain residues with an end cap or a label only (N-terminal biotin on a linker: ado-ado).
Chain of FRMPD3, Q5JV73 (Q5JV73 12-100): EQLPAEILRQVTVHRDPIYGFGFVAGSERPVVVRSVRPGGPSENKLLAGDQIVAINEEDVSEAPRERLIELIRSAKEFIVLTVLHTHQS
Design: key: below the threshold = too weak to quantify, mostly under pKd 3.1 to 4
With B1 the pKd was “below the threshold”. B2 was tested, and the pKd was “below the threshold”.

What follows are binders tested against T6, SYNJ2BP, P57105 (assay: holdup assay). Conditions: plain residues with an end cap or a label only (N-terminal biotin on a linker: ado-ado).
Design: key: below the threshold = too weak to quantify, mostly under pKd 3.1 to 4
B1 was tested, and the pKd was “below the threshold”. For B2, the pKd was “below the threshold”.

Each binder was assayed against DLG4_1, P78352 (assay: holdup assay). Conditions: plain residues with an end cap or a label only (N-terminal biotin on a linker: ado-ado).
Chain of DLG4_1, P78352 (P78352 62-152): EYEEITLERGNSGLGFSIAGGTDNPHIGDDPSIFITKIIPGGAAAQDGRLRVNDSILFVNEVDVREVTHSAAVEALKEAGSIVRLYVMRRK
Design: key: below the threshold = too weak to quantify, mostly under pKd 3.1 to 4
B1 gave a pKd of 3.69. For B2, the pKd was “below the threshold”.

These binders were tested against NOS1, P29475 (assay: holdup assay). Conditions: plain residues with an end cap or a label only (N-terminal biotin on a linker: ado-ado).
Chain of NOS1, P29475 (P29475 9-101): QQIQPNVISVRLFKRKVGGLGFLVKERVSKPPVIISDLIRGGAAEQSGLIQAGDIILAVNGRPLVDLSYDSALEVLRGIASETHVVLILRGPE
Design: key: below the threshold = too weak to quantify, mostly under pKd 3.1 to 4
Work on B1 yielded a pKd of 3.61. Work on B2 yielded a pKd of 3.58.

Each binder was assayed against Inadl_8, Q8NI35 (assay: holdup assay). Conditions: plain residues with an end cap or a label only (N-terminal biotin on a linker: ado-ado).
Chain of Inadl_8, Q8NI35 (Q8NI35 1425-1530): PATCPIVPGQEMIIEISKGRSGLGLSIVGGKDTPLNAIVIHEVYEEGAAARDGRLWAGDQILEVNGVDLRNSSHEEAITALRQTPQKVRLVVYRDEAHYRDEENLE
Design: key: below the threshold = too weak to quantify, mostly under pKd 3.1 to 4
B1 was tested, and the pKd was 3.76. In the case of B2, the pKd is reported as 3.82.

The binders below were run against IL16_3, Q14005 (assay: holdup assay). Conditions: plain residues with an end cap or a label only (N-terminal biotin on a linker: ado-ado).
Chain of IL16_3, Q14005 (Q14005 1107-1207): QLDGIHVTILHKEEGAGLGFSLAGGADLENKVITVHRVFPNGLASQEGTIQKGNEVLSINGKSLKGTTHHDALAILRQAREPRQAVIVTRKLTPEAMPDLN
Design: key: below the threshold = too weak to quantify, mostly under pKd 3.1 to 4
In the case of B1, the pKd is reported as “below the threshold”. With B2 the pKd was “below the threshold”.

Each binder was assayed against GRIP2_4, Q9C0E4 (assay: holdup assay). Conditions: plain residues with an end cap or a label only (N-terminal biotin on a linker: ado-ado).
Chain of GRIP2_4, Q9C0E4 (Q9C0E4 446-548): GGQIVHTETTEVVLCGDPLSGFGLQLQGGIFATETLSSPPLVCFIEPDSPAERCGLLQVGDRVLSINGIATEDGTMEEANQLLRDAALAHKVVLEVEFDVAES
Design: key: below the threshold = too weak to quantify, mostly under pKd 3.1 to 4
With B1 the pKd was “below the threshold”. With B2 the pKd was “below the threshold”.

The binders below were run against T7, LNX2_2, Q8N448 (assay: holdup assay). Conditions: plain residues with an end cap or a label only (N-terminal biotin on a linker: ado-ado).
Design: key: below the threshold = too weak to quantify, mostly under pKd 3.1 to 4
B1 was tested, and the pKd was “below the threshold”. B2 was tested, and the pKd was 4.12.

The binders below were run against T8, APBA1_1, Q02410 (assay: holdup assay). Conditions: plain residues with an end cap or a label only (N-terminal biotin on a linker: ado-ado).
Design: key: below the threshold = too weak to quantify, mostly under pKd 3.1 to 4
For B1, the pKd was “below the threshold”. With B2 the pKd was “below the threshold”.

What follows are binders tested against MAGI1_1, Q96QZ7 (assay: holdup assay). Conditions: plain residues with an end cap or a label only (N-terminal biotin on a linker: ado-ado).
Chain of MAGI1_1, Q96QZ7 (Q96QZ7 1-106): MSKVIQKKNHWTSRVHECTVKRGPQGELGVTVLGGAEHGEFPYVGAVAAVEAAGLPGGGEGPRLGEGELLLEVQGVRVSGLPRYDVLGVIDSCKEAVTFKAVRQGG
Design: key: below the threshold = too weak to quantify, mostly under pKd 3.1 to 4
For B1, the pKd was “below the threshold”. With B2 the pKd was “below the threshold”.

What follows are binders tested against T9, NHERF3_1, Q5T2W1 (assay: holdup assay). Conditions: plain residues with an end cap or a label only (N-terminal biotin on a linker: ado-ado).
Design: key: below the threshold = too weak to quantify, mostly under pKd 3.1 to 4
Work on B1 yielded a pKd of 4.7. B2 showed a pKd of 4.19.

What follows are binders tested against T10, GRIP1_3, Q9Y3R0 (assay: holdup assay). Conditions: plain residues with an end cap or a label only (N-terminal biotin on a linker: ado-ado).
Design: key: below the threshold = too weak to quantify, mostly under pKd 3.1 to 4
In the case of B1, the pKd is reported as “below the threshold”. B2 was tested, and the pKd was “below the threshold”.

What follows are binders tested against T11, DLG3_2, Q92796 (assay: holdup assay). Conditions: plain residues with an end cap or a label only (N-terminal biotin on a linker: ado-ado).
Design: key: below the threshold = too weak to quantify, mostly under pKd 3.1 to 4
For B1, the pKd was “below the threshold”. In the case of B2, the pKd is reported as “below the threshold”.

Each binder was assayed against DLG4_2, P78352 (assay: holdup assay). Conditions: plain residues with an end cap or a label only (N-terminal biotin on a linker: ado-ado).
Chain of DLG4_2, P78352 (P78352 155-259): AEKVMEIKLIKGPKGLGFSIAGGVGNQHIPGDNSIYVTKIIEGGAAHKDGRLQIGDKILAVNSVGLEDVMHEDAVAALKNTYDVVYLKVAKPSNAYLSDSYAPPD
Design: key: below the threshold = too weak to quantify, mostly under pKd 3.1 to 4
B1 was tested, and the pKd was 3.87. B2 was tested, and the pKd was “below the threshold”.

These binders were tested against T12, RHPN1, Q8TCX5 (assay: holdup assay). Conditions: plain residues with an end cap or a label only (N-terminal biotin on a linker: ado-ado).
Design: key: below the threshold = too weak to quantify, mostly under pKd 3.1 to 4
B1 showed a pKd of 3.76. With B2 the pKd was “below the threshold”.

From PMC9482650, “Quantitative fragmentomics allow affinity mapping of interactomes” (Nature Communications, 2022)
